Values quoted from earlier work in paper PMC3625564.

Molecular target: Endocan (Homo sapiens) (UniProt Q9NQ30)
Test: biosensor

Chain of UniProt Q9NQ30 (Q9NQ30 20-184): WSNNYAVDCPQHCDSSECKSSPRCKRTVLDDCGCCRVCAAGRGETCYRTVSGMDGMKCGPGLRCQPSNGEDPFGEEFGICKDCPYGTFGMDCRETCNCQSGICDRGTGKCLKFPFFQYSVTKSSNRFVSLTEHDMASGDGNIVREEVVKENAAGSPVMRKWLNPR

- Kd: 4.5 nM
Substance: HGF (from UniProt P14210)
